Source: US20110263827A1 (AbbVie / Abbott, published 2011)
“And” between values parts separate entries of the source, which are not always exact repeats. Equal values may be shown once. Values belong to the binder of their own block, whether it stands above or below them.

What was measured:
ErbB3 = molecular target: T1, ErbB3 (UniProt P21860 20-643, limits assumed, biotinylated); assay: direct bind ELISA, ref Ab
T1 construct: ELISA antigen

IGF1R = molecular target: T2, IGF1R (UniProt P08069 31-932, limits assumed, biotinylated); assay: direct bind ELISA, ref Ab
T2 construct: ELISA antigen

HGF = molecular target: T3, HGF (UniProt P14210 32-728, limits assumed, biotinylated); assay: direct bind ELISA, ref Ab
T3 construct: ELISA antigen

DLL-4 = molecular target: T4, DLL-4 (UniProt Q9NR61 27-524, limits assumed, biotinylated); assay: direct bind ELISA, ref Ab
T4 construct: ELISA antigen

PLGF [1] = molecular target: T5, PLGF (UniProt P49763-2 21-149, limits assumed, biotinylated); assay: direct bind ELISA, ref Ab
T5 construct: ELISA antigen; also called P1GF
T5 sequence (looked up): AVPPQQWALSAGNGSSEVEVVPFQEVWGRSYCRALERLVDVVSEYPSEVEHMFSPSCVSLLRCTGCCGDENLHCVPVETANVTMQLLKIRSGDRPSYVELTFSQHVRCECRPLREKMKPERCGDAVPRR

RON = RON (UniProt Q04912 25-571, biotinylated); assay: direct bind ELISA, ref Ab
VEGF = molecular target: T6, VEGF (UniProt P15692-4 27-191, limits assumed, biotinylated); assay: direct bind ELISA, ref Ab
T6 construct: ELISA antigen

EGFR = molecular target: T7, EGFR (UniProt P00533 25-645, limits assumed, biotinylated); assay: direct bind ELISA, C-term VD;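 also: ELISA with antibody or DVD-Ig preparations applied to target antigen-coated plates for 1 h at room temperature, TMB colour development, absorbance read at 450 nm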
T7 construct: ELISA antigen; construct not described

PLGF [2] = molecular target: T5, PLGF; assay: direct bind ELISA, N-term VD;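 also: antibody or DVD-Ig preparations bound to immobilized target antigen on ELISA plates, 1 h at room temperature, TMB detection read as absorbance at 450 nm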

EC50 (ErbB3): 1.4 nM and 2.03 nM
B3: AB067 (antibody, V domains shown)
VH: EVQLLESGGGLVQPGGSLRLSCAASGFTFSHYVMAWVRQAPGKGLEWVSSISSSGGWTLYADSVKGRFTISRDNSKNTLYLQMNSLRAEDTAVYYCTRGLKMATIFDYWGQGTLVTVSS
VL: QSALTQPASVSGSPGQSITISCTGTSSDVGSYNVVSWYQQHPGKAPKLIIYEVSQRPSGVSNRFSGSKSGNTASLTISGLQTEDEADYYCCSYAGSSIFVIFGGGTKVTVLG
notes: parent antibody

EC50 (ErbB3): 0.86 nM and 1.11 nM
B4: AB063 (antibody, V domains shown)
VH: EVQLVESGGGLVQPGGSLRLSCAASGFTFSIYSMNWVRQAPGKGLEWVSYISSSSSTIYYADSVKGRFTISRDNAKNSLYLQMNSLRDEDTAVYYCARDRGDFDAFDIWGQGTMVTVSS
VL: DIQMTQSPSSLSASVGDRVTITCQASQDITNYLNWYQQKPGKAPKLLIYDASNLETGVPSRFSGSGSGTDFTFTISSLQPEDIATYNCQQCENFPITFGQGTRLEIKR
notes: parent antibody

EC50 (VEGF): 1.68 nM and 1.57 nM
B9: AB071 (antibody, V domains shown)
VH: EVQLVESGGGLVQPGGSLRLSCAASGFTINASWIHWVRQAPGKGLEWVGAIYPYSGYTNYADSVKGRFTISADTSKNTAYLQMNSLRAEDTAVYYCARWGHSTSPWAMDYWGQGTLVTVSS
VL: DIQMTQSPSSLSASVGDRVTITCRASQVIRRSLAWYQQKPGKAPKLLIYAASNLASGVPSRFSGSGSGTDFTLTISSLQPEDFATYYCQQSNTSPLTFGQGTKVEIKR
notes: parent antibody

EC50 (EGFR): 120 nM | EC50 (PLGF [2]): 0.2 nM
B10: DVD342 (bispecific antibody)
VH: QVQLQQSGAELVKPGASVKISCKASGYTFTDYYINWVKLAPGQGLEWIGWIYPGSGNTKYNEKFKGKATLTIDTSSSTAYMQLSSLTSEDTAVYFCVRDSPFFDYWGQGTLLTVSSASTKGPQVQLQESGPGLVKPSQTLSLTCTVSGYSISSDFAWNWIRQPPGKGLEWMGYISYSGNTRYQPSLKSRITISRDTSKNQFFLKLNSVTAADTATYYCVTAGRGFPYWGQGTLVTVSS
VL: DIVLTQSPDSLAVSLGERVTMNCKSSQSLLNSGMRKSFLAWYQQKPGQSPKLLIYWASTRESGVPDRFTGSGSGTDFTLTISSVQAEDVAVYYCKQSYHLFTFGSGTKLEIKRTVAAPDIQMTQSPSSMSVSVGDRVTITCHSSQDINSNIGWLQQKPGKSFKGLIYHGTNLDDGVPSRFSGSGSGTDYTLTISSLQPEDFATYYCVQYAQFPWTFGGGTKLEIKR
notes: DVD-Ig; HC S, LC S; variable parts only

Continued, binder first:

B1: AB062 (antibody, V domains shown)
VH: QVQLQQWGAGLLKPSETLSLTCAVYGGSFSGYYWSWIRQPPGKGLEWIGEINHSGSTNYNPSLKSRVTISVETSKNQFSLKLSSVTAADTAVYYCARDKWTWYFDLWGRGTLVTVSS
VL: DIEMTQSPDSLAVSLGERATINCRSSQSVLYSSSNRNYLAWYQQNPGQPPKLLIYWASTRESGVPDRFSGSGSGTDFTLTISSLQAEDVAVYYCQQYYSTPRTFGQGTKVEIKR
notes: parent antibody
EC50 (ErbB3): 1.19 nM and 1.36 nM and 1.34 nM

B2: AB011 (antibody, V domains shown)
VH: EVQLLESGGGLVQPGGSLRLSCTASGFTFSSYAMNWVRQAPGKGLEWVSAISGSGGTTFYADSVKGRFTISRDNSRTTLYLQMNSLRAEDTAVYYCAKDLGWSDSYYYYYGMDVWGQGTTVTVSS
VL: DIQMTQFPSSLSASVGDRVTITCRASQGIRNDLGWYQQKPGKAPKRLIYAASRLHRGVPSRFSGSGSGTEFTLTISSLQPEDFATYYCLQHNSYPCSFGQGTKLEIKR
notes: parent antibody; also called IGF1R
EC50 (IGF1R): 0.24 nM and 0.26 nM

B5: AB012 (antibody, V domains shown)
VH: QVQLVESGGGLVKPGGSLRLSCAASGFTFSDYYMSWIRQAPGKGLEWVSYISSSGSTIYYADSVKGRFTISRDNAKNSLYLQMNSLRAEDTAVYYCARDEYNSGWYVLFDYWGQGTLVTVSS
VL: DIQMTQSPSSVSASVGDRVTITCRASQGISSWLAWYQQKPGKAPNLLIYEASSLQSGVPSRFGGSGSGTDFTLTISSLQPEDFATYYCQQANGFPWTFGQGTKVEIKR
notes: parent antibody; also called HGF
EC50 (HGF): 0.15 nM and 0.19 nM

B6: AB015 (antibody, V domains shown)
VH: EVQLVESGGGLVQPGGSLRLSCAASGFTFTDNWISWVRQAPGKGLEWVGYISPNSGFTYYADSVKGRFTISADTSKNTAYLQMNSLRAEDTAVYYCARDNFGGYFDYWGQGTLVTVSS
VL: DIQMTQSPSSLSASVGDRVTITCRASQDVSTAVAWYQQKPGKAPKLLIYSASFLYSGVPSRFSGSGSGTDFTLTISSLQPEDFATTYYCQQSYTGTVTFGQGTKVEIKR
notes: parent antibody; also called DLL-4
EC50 (DLL-4): 0.45 nM and 0.4 nM

B7: AB047 (antibody, V domains shown)
VH: QVQLQQSGAELVKPGASVKISCKASGYTFTDYYINWVKLAPGQGLEWIGWIYPGSGNTKYNEKFKGKATLTIDTSSSTAYMQLSSLTSEDTAVYFCVRDSPFFDYWGQGTLLTVSS
VL: DIVLTQSPDSLAVSLGERVTMNCKSSQSLLNSGMRKSFLAWYQQKPGQSPKLLIYWASTRESGVPDRFTGSGSGTDFTLTISSVQAEDVAVYYCKQSYHLFTFGSGTKLEIKR
notes: parent antibody; also called PLGF; P1GF (ThromboGenix)
EC50 (PLGF [1]): 0.21 nM and 0.25 nM

B8: AB005 (antibody, V domains shown)
VH: EVQLVQSGGGLVKPGGSLRLSCAASGFTFSSYAMHWVRQAPGKGLEWVAVISYDGSNKYYADSVKGRFTISRDNSKNTLYLQMNSLRAEDTAVYYCARFSGWPNNYYYYGMDVWGQGTTVTVSS
VL: DVVMTQSPLSLPVTPGEPASISCRSSQSLLHSNGFNYVDWYLQKPGQSPHLLIYFGSYRASGVPDRFSGSGSGTDFTLKISRVEAEDVGVYYCMQALQTPPWTFGQGTKVEIRR
notes: parent antibody; also called RON
EC50 (RON): 0.19 nM and 0.24 nM
